Reference: publication doi:10.1101/2023.04.24.538112

Molecular target: Full-length (FL) BRAF purified from HEK293F cells (UniProt P15056)
Experiment: SPR; OpenSPR; His/MBP-NT1-4 or FL-BRAF immobilised on Ni-NTA sensor, KRAS-GMPPNP (GST-tagged or untagged) or GST alone flowed at 30 μL/min for 10 min; 20 mM HEPES pH 7.4, 150 mM NaCl, 0.23% glycerol, 0.05% Tween-20, 1% BSA; 1:1 fit

Sequence of Full-length (FL) BRAF purified from HEK293F cells (P15056 whole entry): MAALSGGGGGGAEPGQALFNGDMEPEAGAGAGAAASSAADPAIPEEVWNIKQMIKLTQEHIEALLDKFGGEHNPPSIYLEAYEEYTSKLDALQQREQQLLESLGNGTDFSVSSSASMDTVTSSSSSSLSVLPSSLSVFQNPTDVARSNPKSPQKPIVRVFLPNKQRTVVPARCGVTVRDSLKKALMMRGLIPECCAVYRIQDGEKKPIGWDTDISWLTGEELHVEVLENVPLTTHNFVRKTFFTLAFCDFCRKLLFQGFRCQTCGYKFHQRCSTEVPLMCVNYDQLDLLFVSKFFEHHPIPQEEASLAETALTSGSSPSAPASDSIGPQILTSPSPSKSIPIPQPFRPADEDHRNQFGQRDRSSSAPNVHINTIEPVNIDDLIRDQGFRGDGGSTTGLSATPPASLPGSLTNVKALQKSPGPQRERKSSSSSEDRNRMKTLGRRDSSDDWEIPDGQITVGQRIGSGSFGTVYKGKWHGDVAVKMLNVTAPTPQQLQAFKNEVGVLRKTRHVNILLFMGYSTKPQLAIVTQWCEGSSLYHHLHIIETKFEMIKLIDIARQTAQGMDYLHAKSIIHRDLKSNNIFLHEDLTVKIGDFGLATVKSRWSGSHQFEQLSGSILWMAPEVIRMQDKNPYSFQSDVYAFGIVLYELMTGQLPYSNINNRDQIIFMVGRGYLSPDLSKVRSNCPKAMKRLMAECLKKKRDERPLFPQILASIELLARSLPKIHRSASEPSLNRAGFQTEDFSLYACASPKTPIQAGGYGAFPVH

Substance: GST-tagged, dimeric full-length KRAS4b (from UniProt P01116-2 1-188) (natural protein)
- Kd: 101 nM
